As usually defined, the EC50 is the concentration giving half of the maximal effect. A higher EC50 goes with lower potency in that assay. The term Kd denotes the free concentration of one partner at which half of the binding sites on the other are occupied at equilibrium, for simple one-to-one binding. Lower therefore signals higher affinity. As usually defined, the koff is a measure of how fast the partners let go of each other. In general, kon refers to the rate constant with which the complex forms. The low end stands for slow association, the high end for fast association.

Test [1] concerns the target T1, human IL-1α (human, UniProt P01583 113-271, biotinylated in the ELISA (site not stated)).
T1 construct: also called hIL-1α; Human mature IL-1α
T1 sequence: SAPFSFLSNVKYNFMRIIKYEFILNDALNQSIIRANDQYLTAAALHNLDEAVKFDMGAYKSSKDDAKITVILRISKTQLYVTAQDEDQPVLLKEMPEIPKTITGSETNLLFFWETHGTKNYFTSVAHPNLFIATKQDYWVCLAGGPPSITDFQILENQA
Nature of the test: ELISA: DVD-Ig captured on anti-human Fc, biotinylated antigen titrated. The method, then:
(§1) To determine if the anti-IL-1β mAbs bind to human IL-1β, ELISA plates (Nunc, MaxiSorp, Rochester, N.Y.) were incubated overnight at 4° C. with anti-human Fc antibody diluted in Pierce Coat buffer at 2 μg/ml (Jackson Immunoresearch, West Grove, Pa.). Plates were washed five times in washing buffer (PBS containing 0.05% Tween 20), and blocked for 1 hour at 25° C. with 200 μl per well superblock blocking buffer (Thermo scientific, No. 37515). Blocking buffer was removed by tapping plates, and 2 μg/ml of each antibody in PBS containing 10% Superblock, 0.5% Tween-20 was added to the wells at 100 μl/well and incubated at 25° C. for 1 hour. The wells were washed five times in 1×PBST, and 1 μg/ml biotinylated antigen was titrated at 1:6 serial dilutions (for a range of μg to pg in PBS containing 10% Superblock, 0.05% Tween 20). Each dilution of antigen was then added to the plates and incubated for 1 hour at 25° C. […] The wells were washed five times in 1×PBST, and 100 μl of ULTRA-TMB ELISA (Pierce, Rockford, Ill.) were added per well. Following color development the reaction was stopped with 1N HCL and absorbance at 450 nm was measured.
(§2) IL-1β and IL-1α binding by IL-1β/α DVD-Ig binding proteins was assessed by ELISA (assay described above, Example 2.1).
(An ELISA detects its analyte on a solid surface through an enzyme-linked reagent.)

The target in test [2] is T2, human IL-1β (human, UniProt P01584 117-269, biotinylated in the ELISA (site not stated)). The test can be described thus: cell-based or functional assay.
In test [3] the target is T1, human IL-1α. The test can be described thus: cell-based or functional assay.
Test [4] concerns the target T2, human IL-1β. Nature of the test: ELISA: antibody captured on anti-human Fc, biotinylated antigen titrated. The method, then: as §1
Test [5] deals with T3, cynomolgus IL-1α (cynomolgus, UniProt P79340 113-271).
T3 sequence (looked up): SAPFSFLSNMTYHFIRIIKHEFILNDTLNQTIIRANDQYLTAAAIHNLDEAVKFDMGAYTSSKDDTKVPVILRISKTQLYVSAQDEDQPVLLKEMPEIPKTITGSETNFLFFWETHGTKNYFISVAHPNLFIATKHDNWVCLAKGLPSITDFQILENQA
Nature of the test: cell-based or functional assay.

Test [6] has as its target T1, human IL-1α. The test can be described thus: SPR (Biacore), DVD-Ig captured, antigen in solution. For orientation: In SPR one partner is held on a chip, and binding of the other changes the refractive index at the surface.
Test [7] deals with T3, cynomolgus IL-1α. The test is described as above.
In test [8] the target is T1, human IL-1α. The test can be described thus: Biacore (SPR), sequential injections on captured DVD-Ig: IL-1α as 2nd injection, after IL-1β.
The target of test [9] is T4, cynomolgus IL-1β (cynomolgus, UniProt P79182 117-268).
T4 sequence (looked up): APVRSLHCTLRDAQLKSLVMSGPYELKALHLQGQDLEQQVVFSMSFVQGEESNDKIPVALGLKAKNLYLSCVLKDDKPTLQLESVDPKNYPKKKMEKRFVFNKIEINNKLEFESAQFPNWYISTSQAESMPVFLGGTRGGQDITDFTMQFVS
Nature of the test: cell-based or functional assay.

Test [10] concerns the target T2, human IL-1β. The test can be described thus: SPR (Biacore), DVD-Ig captured, antigen in solution.
The target in test [11] is T4, cynomolgus IL-1β. Described as above.
Test [12] deals with T2, human IL-1β. Nature of the test: ELISA: DVD-Ig captured on anti-human Fc, biotinylated antigen titrated. The protocol: as §1, §2

B1: X3-SS-E26.13 DVD-Ig (bispecific antibody, human IgG1, kappa, L234A L235A)
heavy: not shown
light: DIQMTQSPSSVSASVGDRVTITCRASQGISSWLAWYQQKPGKAPKLLIYEASNLETGVPSRFSGSGSGSDFTLTISSLQPEDFATYYCQQTSSFLLSFGGGTKVEHKRTVAAPDIQMTQSPSSLSASVGDRVTITCRASGNIHNYLTWYQQTPGKAPKLLIYNAKTLADGVPSRFSGSGSGTDYTFTISSLQPEDIATYYCQHFWSIPYTFGQGTKLQITRTVAAPSVFIFPPSDEQLKSGTASVVCLLNNFYPREAKVQWKVDNALQSGNSQESVTEQDSKDSTYSLSSTLTLSKADYEKHKVYACEVTHQGLSSPVTKSFNRGEC
notes: Dual variable domain immunoglobulin
Turning to B1, the EC50 with human IL-1α [1] stood at 4.5 pM.

B2: X3-LL-E26.13 DVD-Ig (bispecific antibody, human IgG1, kappa, L234A L235A)
heavy: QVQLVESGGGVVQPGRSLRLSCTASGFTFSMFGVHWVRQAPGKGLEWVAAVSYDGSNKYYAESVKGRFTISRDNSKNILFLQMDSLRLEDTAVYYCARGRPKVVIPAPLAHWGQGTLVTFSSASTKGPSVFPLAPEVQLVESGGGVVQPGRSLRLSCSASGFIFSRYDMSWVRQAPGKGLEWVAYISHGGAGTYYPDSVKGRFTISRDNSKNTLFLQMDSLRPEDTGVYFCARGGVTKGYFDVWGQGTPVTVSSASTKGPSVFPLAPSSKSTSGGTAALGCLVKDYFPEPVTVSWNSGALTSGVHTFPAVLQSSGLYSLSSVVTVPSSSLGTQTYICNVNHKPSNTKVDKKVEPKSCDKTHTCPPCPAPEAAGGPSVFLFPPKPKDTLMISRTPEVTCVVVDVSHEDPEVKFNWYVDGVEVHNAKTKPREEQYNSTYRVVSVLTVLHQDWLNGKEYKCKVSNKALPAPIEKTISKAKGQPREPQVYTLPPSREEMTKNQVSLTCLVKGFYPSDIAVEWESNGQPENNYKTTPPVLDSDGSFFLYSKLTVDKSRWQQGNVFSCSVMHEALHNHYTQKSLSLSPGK
light: DIQMTQSPSSVSASVGDRVTITCRASQGISSWLAWYQQKPGKAPKLLIYEASNLETGVPSRFSGSGSGSDFTLTISSLQPEDFATYYCQQTSSFLLSFGGGTKVEHKRTVAAPSVFIFPPDIQMTQSPSSLSASVGDRVTITCRASGNIHNYLTWYQQTPGKAPKLLIYNAKTLADGVPSRFSGSGSGTDYTFTISSLQPEDIATYYCQHFWSIPYTFGQGTKLQITRTVAAPSVFIFPPSDEQLKSGTASVVCLLNNFYPREAKVQWKVDNALQSGNSQESVTEQDSKDSTYSLSSTLTLSKADYEKHKVYACEVTHQGLSSPVTKSFNRGEC
With B2, the “Potency (pM): neutralization of IL-1-induced hIL-8 in MRC5 cells” value (from here on “Potency (pM): neutralization”) amounted to 1470 pM with human IL-1β [2] and 8.9 pM with human IL-1α [3].

B3: E26.11 (antibody, V domains shown)
VH: EVQLVESGGGVVQPGRSLRLSCSASGFIFSRYDMSWVRQAPGKGLEWVAYISHGGAGTYYPDSVKGRFTISRDNSKNTLFLQMDSLRPEDTAVYYCARGGVYKGYFDVWGQGTPVTVSS
VL: DIQMTQSPSSLSASVGDRVTITCRASGNIHNYLTWYQQTPGKAPKLLIYNAKTLADGVPSRFSGSGSGTDYTFTISSLQPEDIATYYCQHFWSIPYTFGQGTKLQIT
For B3, in the test with human IL-1β [4], a half-maximal response (EC50) required 0.014 nM.

B4: E26.13-LL-X3 DVD-Ig (bispecific antibody, human IgG1, kappa, L234A L235A)
heavy: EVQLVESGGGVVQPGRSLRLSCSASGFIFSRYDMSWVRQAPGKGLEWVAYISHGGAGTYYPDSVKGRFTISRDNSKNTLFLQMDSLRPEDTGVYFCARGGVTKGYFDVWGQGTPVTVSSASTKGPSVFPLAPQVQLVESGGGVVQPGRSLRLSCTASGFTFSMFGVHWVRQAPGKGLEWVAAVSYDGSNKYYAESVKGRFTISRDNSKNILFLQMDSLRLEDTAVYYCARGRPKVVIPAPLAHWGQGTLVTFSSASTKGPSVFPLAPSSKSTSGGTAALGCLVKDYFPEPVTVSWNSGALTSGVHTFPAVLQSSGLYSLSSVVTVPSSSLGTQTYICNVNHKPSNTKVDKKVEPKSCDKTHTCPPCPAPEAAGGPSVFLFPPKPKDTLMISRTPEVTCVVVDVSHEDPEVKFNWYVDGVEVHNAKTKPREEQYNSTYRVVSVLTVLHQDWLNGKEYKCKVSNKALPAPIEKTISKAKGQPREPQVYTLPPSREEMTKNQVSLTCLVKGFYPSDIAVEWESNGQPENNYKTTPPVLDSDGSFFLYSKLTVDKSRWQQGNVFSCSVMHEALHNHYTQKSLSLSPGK
light: DIQMTQSPSSLSASVGDRVTITCRASGNIHNYLTWYQQTPGKAPKLLIYNAKTLADGVPSRFSGSGSGTDYTFTISSLQPEDIATYYCQHFWSIPYTFGQGTKLQITRTVAAPSVFIFPPDIQMTQSPSSVSASVGDRVTITCRASQGISSWLAWYQQKPGKAPKLLIYEASNLETGVPSRFSGSGSGSDFTLTISSLQPEDFATYYCQQTSSFLLSFGGGTKVEHKRTVAAPSVFIFPPSDEQLKSGTASVVCLLNNFYPREAKVQWKVDNALQSGNSQESVTEQDSKDSTYSLSSTLTLSKADYEKHKVYACEVTHQGLSSPVTKSFNRGEC
notes: as for B1
Take B4: the “Potency (pM): neutralization” value with human IL-1α [3] was found to be 10.2 pM. Moreover, the “Potency (pM): neutralization” value with cynomolgus IL-1α [5] was 1050 pM. In the test with human IL-1α [6], this molecule came in with a Kd of 6.15 pM, a koff of 3.9e-06 s⁻¹ and a kon of 646000 M⁻¹ s⁻¹. Further, in the test with cynomolgus IL-1α [7], the dissociation constant Kd was 3.24 nM, the koff came out at 0.00105 s⁻¹ and the kon turned out to be 315000 M⁻¹ s⁻¹. Besides, in the test with human IL-1α [1], the EC50 was 5.8 pM.

B5: E26.13-SS-X3 DVD-Ig (bispecific antibody, human IgG1, kappa, L234A L235A)
heavy: not shown
light: DIQMTQSPSSLSASVGDRVTITCRASGNIHNYLTWYQQTPGKAPKLLIYNAKTLADGVPSRFSGSGSGTDYTFTISSLQPEDIATYYCQHFWSIPYTFGQGTKLQITRTVAAPDIQMTQSPSSVSASVGDRVTITCRASQGISSWLAWYQQKPGKAPKLLIYEASNLETGVPSRFSGSGSGSDFTLTISSLQPEDFATYYCQQTSSFLLSFGGGTKVEHKRTVAAPSVFIFPPSDEQLKSGTASVVCLLNNFYPREAKVQWKVDNALQSGNSQESVTEQDSKDSTYSLSSTLTLSKADYEKHKVYACEVTHQGLSSPVTKSFNRGEC
notes: as for B1
Regarding B5, the Kd amounted to 7.61 pM with human IL-1α [6] and 4.11 nM in the test with cynomolgus IL-1α [7]. Moreover, in the test with human IL-1α [8], the stoichiometry came out at 1.6.

B6: E26.35-SS-X3 DVD-Ig (bispecific antibody, human IgG1, kappa, L234A L235A)
heavy: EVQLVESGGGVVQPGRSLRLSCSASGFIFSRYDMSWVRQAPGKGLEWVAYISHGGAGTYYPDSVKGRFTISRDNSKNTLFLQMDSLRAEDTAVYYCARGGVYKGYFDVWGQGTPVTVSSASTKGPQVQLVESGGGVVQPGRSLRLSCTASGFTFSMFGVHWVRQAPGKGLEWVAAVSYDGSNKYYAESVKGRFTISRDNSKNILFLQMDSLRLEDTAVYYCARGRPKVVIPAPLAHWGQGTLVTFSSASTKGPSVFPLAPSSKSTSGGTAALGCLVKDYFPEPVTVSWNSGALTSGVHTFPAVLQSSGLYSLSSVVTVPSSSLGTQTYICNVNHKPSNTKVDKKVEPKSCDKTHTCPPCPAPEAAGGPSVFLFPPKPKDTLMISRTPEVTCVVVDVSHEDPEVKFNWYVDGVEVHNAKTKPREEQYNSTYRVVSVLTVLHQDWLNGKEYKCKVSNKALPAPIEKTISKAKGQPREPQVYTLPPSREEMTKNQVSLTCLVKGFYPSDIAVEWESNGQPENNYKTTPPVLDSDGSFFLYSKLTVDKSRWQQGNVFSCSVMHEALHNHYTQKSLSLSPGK
light: DIQMTQSPSSLSASVGDRVTITCRASGNIHNYLTWYQQTPGKAPKLLIYNAKTLADGVPSRFSGSGSGTDYTFTISSLQPEDIATYYCQHFWSIPYTFGQGTKLQITRTVAAPDIQMTQSPSSVSASVGDRVTITCRASQGISSWLAWYQQKPGKAPKLLIYEASNLETGVPSRFSGSGSGSDFTLTISSLQPEDFATYYCQQTSSFLLSFGGGTKVEHKRTVAAPSVFIFPPSDEQLKSGTASVVCLLNNFYPREAKVQWKVDNALQSGNSQESVTEQDSKDSTYSLSSTLTLSKADYEKHKVYACEVTHQGLSSPVTKSFNRGEC
notes: as for B1
On to B6, for which the “Potency (pM): neutralization” value with human IL-1β [2] worked out at 1.8 pM; with human IL-1α [3], 25.8 pM; in the test with cynomolgus IL-1β [9] it was 0.6 pM; in the test with cynomolgus IL-1α [5], 474 pM. Also, the Kd in the test with human IL-1β [10] was 5.03 pM; with human IL-1α [6] it was 13.3 pM; with cynomolgus IL-1β [11], 0.0106 nM; in the test with cynomolgus IL-1α [7], 3.27 nM. For the same molecule, the koff amounted to 6.81e-06 s⁻¹ with human IL-1β [10], 2.14e-06 s⁻¹ in the test with human IL-1α [6], 1.94e-05 s⁻¹ with cynomolgus IL-1β [11] and 0.000236 s⁻¹ with cynomolgus IL-1α [7]. The kon with human IL-1β [10] was found to be 1.32e+06 M⁻¹ s⁻¹; with human IL-1α [6], 162000 M⁻¹ s⁻¹; with cynomolgus IL-1β [11], 1.84e+06 M⁻¹ s⁻¹; with cynomolgus IL-1α [7], 72400 M⁻¹ s⁻¹. Further, the EC50 worked out at 8 pM with human IL-1β [12] and 6.2 pM with human IL-1α [1].

B7: E26.13-SS-X3 JM DVD-Ig (bispecific antibody, human IgG1, kappa, L234A L235A)
heavy: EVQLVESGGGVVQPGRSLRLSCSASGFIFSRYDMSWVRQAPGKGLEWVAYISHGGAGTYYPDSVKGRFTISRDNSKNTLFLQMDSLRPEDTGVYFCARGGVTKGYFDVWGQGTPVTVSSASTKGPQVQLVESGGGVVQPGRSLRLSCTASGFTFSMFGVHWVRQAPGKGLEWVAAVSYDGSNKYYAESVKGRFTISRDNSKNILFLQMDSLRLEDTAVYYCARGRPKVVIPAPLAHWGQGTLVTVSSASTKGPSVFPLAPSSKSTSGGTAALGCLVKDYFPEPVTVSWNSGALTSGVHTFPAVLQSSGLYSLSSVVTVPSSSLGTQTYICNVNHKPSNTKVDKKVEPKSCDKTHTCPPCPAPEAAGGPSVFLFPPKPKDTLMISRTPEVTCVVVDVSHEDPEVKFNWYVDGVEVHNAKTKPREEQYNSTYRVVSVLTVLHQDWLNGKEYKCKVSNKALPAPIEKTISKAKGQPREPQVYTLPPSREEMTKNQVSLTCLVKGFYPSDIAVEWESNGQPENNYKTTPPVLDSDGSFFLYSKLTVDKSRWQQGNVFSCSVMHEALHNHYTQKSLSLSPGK
light: DIQMTQSPSSLSASVGDRVTITCRASGNIHNYLTWYQQTPGKAPKLLIYNAKTLADGVPSRFSGSGSGTDYTFTISSLQPEDIATYYCQHFWSIPYTFGQGTKLQITRTVAAPDIQMTQSPSSVSASVGDRVTITCRASQGISSWLAWYQQKPGKAPKLLIYEASNLETGVPSRFSGSGSGSDFTLTISSLQPEDFATYYCQQTSSFLLSFGGGTKVEIKRTVAAPSVFIFPPSDEQLKSGTASVVCLLNNFYPREAKVQWKVDNALQSGNSQESVTEQDSKDSTYSLSSTLTLSKADYEKHKVYACEVTHQGLSSPVTKSFNRGEC
notes: Dual variable domain immunoglobulin; X3 is mutated in the J-region (X3 JM)
For B7, the “Potency (pM): neutralization” value was found to be 26.5 pM with human IL-1α [3], 17.6 pM with cynomolgus IL-1β [9] and 1880 pM with cynomolgus IL-1α [5]. Moreover, it took 4.3 pM to reach a half-maximal effect with human IL-1α [1] (EC50).

B8: E26.35-SS-X3 JM DVD-Ig (bispecific antibody, human IgG1, kappa, L234A L235A)
heavy: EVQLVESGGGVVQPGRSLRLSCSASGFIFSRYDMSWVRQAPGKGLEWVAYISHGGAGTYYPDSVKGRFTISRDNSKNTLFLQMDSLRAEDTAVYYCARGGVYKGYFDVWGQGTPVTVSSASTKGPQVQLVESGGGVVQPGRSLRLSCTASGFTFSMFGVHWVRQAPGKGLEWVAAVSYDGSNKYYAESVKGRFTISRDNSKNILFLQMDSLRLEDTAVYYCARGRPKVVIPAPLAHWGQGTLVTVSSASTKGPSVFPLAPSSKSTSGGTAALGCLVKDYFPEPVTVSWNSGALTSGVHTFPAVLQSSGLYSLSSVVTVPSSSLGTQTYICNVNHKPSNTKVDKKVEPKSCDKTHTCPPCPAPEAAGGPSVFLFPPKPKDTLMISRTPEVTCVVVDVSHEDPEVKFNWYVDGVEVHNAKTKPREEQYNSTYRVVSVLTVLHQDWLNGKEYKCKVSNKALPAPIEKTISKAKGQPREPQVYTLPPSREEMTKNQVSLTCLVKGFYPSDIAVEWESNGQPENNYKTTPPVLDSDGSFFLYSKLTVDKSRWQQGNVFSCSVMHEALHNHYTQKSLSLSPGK
light: DIQMTQSPSSLSASVGDRVTITCRASGNIHNYLTWYQQTPGKAPKLLIYNAKTLADGVPSRFSGSGSGTDYTFTISSLQPEDIATYYCQHFWSIPYTFGQGTKLQITRTVAAPDIQMTQSPSSVSASVGDRVTITCRASQGISSWLAWYQQKPGKAPKLLIYEASNLETGVPSRFSGSGSGSDFTLTISSLQPEDFATYYCQQTSSFLLSFGGGTKVEIKRTVAAPSVFIFPPSDEQLKSGTASVVCLLNNFYPREAKVQWKVDNALQSGNSQESVTEQDSKDSTYSLSSTLTLSKADYEKHKVYACEVTHQGLSSPVTKSFNRGEC
notes: as for B7
As to B8, the results for the EC50 with human IL-1β [12] and with human IL-1α [1] were 6.3 pM and 4 pM, respectively.

The values are drawn from patent US20140348838A1 (AbbVie / Abbott, published 2014).
